This passage reports Km and Vmax results from PMC2907653.

Substrate in data set [1]: CN(C)c1nc2c(c(=O)[nH]1)[n+](C)cn2[C@@H]1O[C@H](COP(=O)(O)OP(=O)(O)OP(=O)(O)OC[C@H]2O[C@@H](n3cnc4c(=O)[nH]c(N)nc43)[C@H](O)[C@@H]2O)[C@@H](O)[C@H]1O
The experiment in a line: fluorimetric and HPLC hydrolysis kinetics. The following applies: cleaved between β and γ phosphates; cap-binding pocket; pH 7.2; 20.0 °C. In kind it is biochemical, Caenorhabditis elegans.

Substrate in data set [2]: CNc1ncnc2c1ncn2[C@@H]1O[C@H](COP(=O)(O)OP(=O)(O)OP(=O)(O)OC[C@H]2O[C@@H](n3c[n+](C)c4c(=O)[nH]c(N)nc43)[C@H](O)[C@@H]2O)[C@@H](O)[C@H]1O
Description: purified protein. The following applies: cleaved between β and γ phosphates; pH 7.2; 20.0 °C.

Substrate in data set [3]: C[n+]1cn([C@@H]2O[C@H](COP(=O)(O)OP(=O)(O)OP(=O)(O)OC[C@H]3O[C@@H](n4c[n+](C)c5c(=O)[nH]c(N)nc54)[C@H](O)[C@@H]3O)[C@@H](O)[C@H]2O)c2nc(N)[nH]c(=O)c21
The experiment in a line: purified protein. Conditions: cleaved between β and γ phosphates; pH 7.2; 20.0 °C.

Substrate in data set [4]: C[n+]1cn([C@@H]2O[C@H](COP(=O)(O)OP(=O)(O)OP(=O)(O)OC[C@H]3O[C@@H](n4cnc5c(N)ncnc54)[C@H](O)[C@@H]3O)[C@@H](O)[C@H]2O)c2nc(N)[nH]c(=O)c21
Description: purified protein. Conditions: cleaved between β and γ phosphates; pH 7.2; 20.0 °C.

Substrate in data set [5]: CC[n+]1cn([C@@H]2O[C@H](COP(=O)(O)OP(=O)(O)OP(=O)(O)OC[C@H]3O[C@@H](n4cnc5c(=O)[nH]c(N)nc54)[C@H](O)[C@@H]3O)[C@@H](O)[C@H]2O)c2nc(N)[nH]c(=O)c21
Description: purified protein. Conditions: cleaved between β and γ phosphates; cap-binding pocket; pH 7.2; 20.0 °C.

Substrate in data set [6]: CN(C)c1nc2c(c(=O)[nH]1)[n+](C)cn2[C@@H]1O[C@H](COP(=O)(O)OP(=O)(O)OP(=O)(O)OC[C@H]2O[C@@H](n3cnc4c(N)ncnc43)[C@H](O)[C@@H]2O)[C@@H](O)[C@H]1O
The experiment in a line: purified protein. The following applies: cleaved between β and γ phosphates; pH 7.2; 20.0 °C.

Substrate in data set [7]: C[n+]1cn([C@@H]2O[C@H](COP(=O)(O)OP(=O)(O)OP(=O)(O)OC[C@H]3O[C@@H](n4cnc5c(=O)[nH]c(N)nc54)C[C@@H]3O)[C@@H](O)[C@H]2O)c2nc(N)[nH]c(=O)c21
Description: purified protein. The following applies: cleaved between β and γ phosphates; pH 7.2; 20.0 °C.

Substrate in data set [8]: CO[C@@H]1[C@H](O)[C@@H](COP(=O)(O)OP(=O)(O)OP(=O)(O)OC[C@H]2O[C@@H](n3c[n+](C)c4c(=O)[nH]c(N)nc43)[C@H](O)[C@@H]2O)O[C@H]1n1cnc2c(=O)[nH]c(N)nc21
Description: purified protein. Conditions: cleaved between β and γ phosphates; pH 7.2; 20.0 °C.

Substrate in data set [9]: C[n+]1cn([C@@H]2O[C@H](COP(=O)(O)OP(=O)(O)OP(=O)(O)OC[C@H]3O[C@@H](n4cnc5c(=O)[nH]c(N)nc54)[C@H](O)[C@@H]3O)[C@@H](O)[C@H]2O)c2nc(N)[nH]c(=O)c21
The experiment in a line: purified protein. The following applies: cleaved between β and γ phosphates; cap-binding pocket; pH 7.2; 20.0 °C.

Substrate in data set [10]: Nc1nc2c(ncn2[C@@H]2O[C@H](COP(=O)(O)OP(=O)(O)OP(=O)(O)OC[C@H]3O[C@@H](n4c[n+](Cc5ccccc5)c5c(=O)[nH]c(N)nc54)[C@H](O)[C@@H]3O)[C@@H](O)[C@H]2O)c(=O)[nH]1
Description: purified protein. Conditions: cleaved between β and γ phosphates; cap-binding pocket; pH 7.2; 20.0 °C.

B1: C. elegans scavenger decapping enzyme (DcpS) (Caenorhabditis elegans) (protein)
chain: MKRIADEELVREERAEESTQKWLQDAKFQEILGADSSHKSLFVLLSHPDGSQGILLANKSPFSEEKSDIEKLLATAQLQEISRNDIFGSYNIEIDPKLNLLKSQLIYPINDRLIAKYRQEEKFVIRETPELYETVTRPYIEKYQLNLNWVYNCLEKRSEVDKIVFEDPDNENGFVLLQDIKWDGKTLENLYVLAICHRHGLKSVRDLTGDDLEMLYNMRDKSLEAINQKYGLKTDQIKCYFHYQPSFYHLHVHFINLKYDAPASTTMSAILLDDVINNLELNPEHYKKSTLTFTRKNGDKLMEMFREALKN
What is called Km is the substrate concentration at which the rate is half of its maximum. The term Vmax denotes the rate approached at saturating substrate. With B1, the Km came to 3.85 µM in data set [1]; 1.03 µM in data set [2]; 1.12 µM in data set [3]; 0.6 µM in [4]; 0.61 µM in data set [5]; 2.36 µM in data set [6]. Also, the Km in data set [7] was 1.36 µM; in [8], 1.23 µM; in [9], 1.17 µM; in [10], 1.83 µM. In addition, the Vmax came to 4.65 µmol/min/mg in data set [1]; 1.33 µmol/min/mg in [2]; 0.91 µmol/min/mg in [3]; 1.09 µmol/min/mg in [4]; 3.12 µmol/min/mg in data set [5]; 2.06 µmol/min/mg in [6]. Further, the Vmax in [7] was found to be 2 µmol/min/mg; in data set [8], 1.66 µmol/min/mg; in [9] it was 1.53 µmol/min/mg; in [10], 3.06 µmol/min/mg.
